# Assay results: US20240270846A1 (published 2024)
# Substitutions are numbered along the chain they refer to. Names may count otherwise.
# B1: CE115HA000 T28D one-arm antibody (antibody, human IgG1, kappa, L234A L235A, N297A, name in Kabat numbering)
# heavy: QVQLVESGGGVVQPGRSLRLSCAASGFDFSNAWMHWVRQAPGKGLEWVAQIKAKSNNYATYYAESVKGRFTISRDDSKNSLYLQMNSLKTEDTAVYYCRYVHYGAYYGVDAWGQGTTVTVSSASTKGPSVFPLAPSSKSTSGGTAALGCLVKDYFPEPVTVSWNSGALTSGVHTFPAVLQSSGLYSLSSVVTVPSSSLGTQTYICNVNHKPSNTKVDKKVEPKSCDKTHTCPPCPAPEAAGGPSVFLFPPKPKDTLMISRTPEVTCVVVDVSHEDPEVKFNWYVDGVEVHNAKTKPREEQYASTYRVVSVLTVLHQDWLNGKEYKCKVSNKALPAPIEKTISKAKGQPREPQVYTLPPSRCELTKNQVSLSCAVKGFYPSDIAVEWESNGQPENNYKTTPPVLDSDGSFFLVSKLTVDKSRWQQGNVFSCSVMHEALHNHYTQKSLSLSPDYKDDDDK
# chain: EPKSSDKTHTCPPCPAPELLGGPSVFLFPPKPKDTLMISRTPEVTCVVVDVSHEDPEVKFNWYVDGVEVHNAKTKPREEQYNSTYRVVSVLTVLHQDWLNGKEYKCKVSNKALPAPIEKTISKAKGQPREPQVCTLPPSRDELTKNQVSLWCLVKGFYPSDIAVEWESNGQPENNYKTTPPVLDSDGSFFLYSKLTVDKSRWQQGNVFSCSVMHEALHNRYTQKSLSLSP
# light: DIVMTQSPLSLPVTPGEPASISCRSSQSLVHSNRNTYLHWYQQKPGQAPRLLIYKVSNRFSGVPDRFSGSGSGTDFTLKISRVEAEDVGVYYCGQGTQVPYTFGQGTKLEIKRTVAAPSVFIFPPSDEQLKSGTASVVCLLNNFYPREAKVQWKVDNALQSGNSQESVTEQDSKDSTYSLSSTLTLSKADYEKHKVYACEVTHQGLSSPVTKSFNRGEC
# notes: one-arm antibody
# B2: CE115HA000 W33F one-arm antibody (antibody, human IgG1, kappa, L234A L235A, N297A, name in Kabat numbering)
# heavy: B1 heavy with D28T, W33F
# chain: B1 chain
# light: B1 light
# notes: one-arm antibody
# B3: CE115HA000 W33L one-arm antibody (antibody, human IgG1, kappa, L234A L235A, N297A, name in Kabat numbering)
# heavy: B1 heavy with D28T, W33L
# chain: B1 chain
# light: B1 light
# notes: one-arm antibody
# B4: CE115HA000 Y58A one-arm antibody (antibody, human IgG1, kappa, L234A L235A, N297A, name in Kabat numbering)
# heavy: B1 heavy with D28T, Y61A
# chain: B1 chain
# light: B1 light
# notes: one-arm antibody
# B5: CE115HA000 W33D one-arm antibody (antibody, human IgG1, kappa, L234A L235A, N297A, name in Kabat numbering)
# heavy: B1 heavy with D28T, W33D
# chain: B1 chain
# light: B1 light
# notes: one-arm antibody
# B6: CE115HA000 V11L one-arm antibody (antibody, human IgG1, kappa, L234A L235A, N297A, name in Kabat numbering)
# heavy: B1 heavy with V11L, D28T
# chain: B1 chain
# light: B1 light
# notes: one-arm antibody
# B7: CE115HA000 Y59E one-arm antibody (antibody, human IgG1, kappa, L234A L235A, N297A, name in Kabat numbering)
# heavy: B1 heavy with D28T, Y62E
# chain: B1 chain
# light: B1 light
# notes: one-arm antibody
# B8: CE115HA000 Y59A one-arm antibody (antibody, human IgG1, kappa, L234A L235A, N297A, name in Kabat numbering)
# heavy: B1 heavy with D28T, Y62A
# chain: B1 chain
# light: B1 light
# notes: one-arm antibody
# B9: CE115HA000 T28S one-arm antibody (antibody, human IgG1, kappa, L234A L235A, N297A, name in Kabat numbering)
# heavy: B1 heavy with D28S
# chain: B1 chain
# light: B1 light
# notes: one-arm antibody
# B10: CE115HA000 Y55D one-arm antibody (antibody, human IgG1, kappa, L234A L235A, N297A, name in Kabat numbering)
# heavy: B1 heavy with D28T, Y58D
# chain: B1 chain
# light: B1 light
# notes: one-arm antibody
# B11: CE115HA000 T57A one-arm antibody (antibody, human IgG1, kappa, L234A L235A, N297A, name in Kabat numbering)
# heavy: B1 heavy with D28T, T60A
# chain: B1 chain
# light: B1 light
# notes: one-arm antibody
# B12: CE115HA000 W33A one-arm antibody (antibody, human IgG1, kappa, L234A L235A, N297A, name in Kabat numbering)
# heavy: B1 heavy with D28T, W33A
# chain: B1 chain
# light: B1 light
# notes: one-arm antibody
# B13: CE115HA000 W33Y one-arm antibody (antibody, human IgG1, kappa, L234A L235A, N297A, name in Kabat numbering)
# heavy: B1 heavy with D28T, W33Y
# chain: B1 chain
# light: B1 light
# notes: one-arm antibody
# B14: CE115HA000 T57K one-arm antibody (antibody, human IgG1, kappa, L234A L235A, N297A, name in Kabat numbering)
# heavy: B1 heavy with D28T, T60K
# chain: B1 chain
# light: B1 light
# notes: one-arm antibody
# B15: CE115HA000 T57I one-arm antibody (antibody, human IgG1, kappa, L234A L235A, N297A, name in Kabat numbering)
# heavy: B1 heavy with D28T, T60I
# chain: B1 chain
# light: B1 light
# notes: one-arm antibody
# B16: CE115HA000 Y55G one-arm antibody (antibody, human IgG1, kappa, L234A L235A, N297A, name in Kabat numbering)
# heavy: B1 heavy with D28T, Y58G
# chain: B1 chain
# light: B1 light
# notes: one-arm antibody
# B17: CE115HA000 Y58D one-arm antibody (antibody, human IgG1, kappa, L234A L235A, N297A, name in Kabat numbering)
# heavy: B1 heavy with D28T, Y61D
# chain: B1 chain
# light: B1 light
# notes: one-arm antibody
# B18: CE115HA000 W33H one-arm antibody (antibody, human IgG1, kappa, L234A L235A, N297A, name in Kabat numbering)
# heavy: B1 heavy with D28T, W33H
# chain: B1 chain
# light: B1 light
# notes: one-arm antibody
# B19: CE115HA000 Y59D one-arm antibody (antibody, human IgG1, kappa, L234A L235A, N297A, name in Kabat numbering)
# heavy: B1 heavy with D28T, Y62D
# chain: B1 chain
# light: B1 light
# notes: one-arm antibody
# B20: CE115HA000 Y58K one-arm antibody (antibody, human IgG1, kappa, L234A L235A, N297A, name in Kabat numbering)
# heavy: B1 heavy with D28T, Y61K
# chain: B1 chain
# light: B1 light
# notes: one-arm antibody
# B21: CE115HA000 D101A one-arm antibody (antibody, human IgG1, kappa, L234A L235A, N297A, name in Kabat numbering)
# heavy: B1 heavy with D28T, D110A
# chain: B1 chain
# light: B1 light
# notes: one-arm antibody (one Fab)
# B22: CE115HA000 A99Q one-arm antibody (antibody, human IgG1, kappa, L234A L235A, N297A, name in Kabat numbering)
# heavy: B1 heavy with D28T, A105Q
# chain: B1 chain
# light: B1 light
# notes: one-arm antibody (one Fab)
# B23: CE115HA000 A99K one-arm antibody (antibody, human IgG1, kappa, L234A L235A, N297A, name in Kabat numbering)
# heavy: B1 heavy with D28T, A105K
# chain: B1 chain
# light: B1 light
# notes: one-arm antibody (one Fab)
# B24: CE115HA000 A99L one-arm antibody (antibody, human IgG1, kappa, L234A L235A, N297A, name in Kabat numbering)
# heavy: B1 heavy with D28T, A105L
# chain: B1 chain
# light: B1 light
# notes: one-arm antibody (one Fab)
# B25: CE115HA000 A99D one-arm antibody (antibody, human IgG1, kappa, L234A L235A, N297A, name in Kabat numbering)
# heavy: B1 heavy with D28T, A105D
# chain: B1 chain
# light: B1 light
# notes: one-arm antibody (one Fab)
# B26: CE115HA000 A99S one-arm antibody (antibody, human IgG1, kappa, L234A L235A, N297A, name in Kabat numbering)
# heavy: B1 heavy with D28T, A105S
# chain: B1 chain
# light: B1 light
# notes: one-arm antibody (one Fab)
# B27: CE115HA000 A56Y one-arm antibody (antibody, human IgG1, kappa, L234A L235A, N297A, name in Kabat numbering)
# heavy: B1 heavy with D28T, A59Y
# chain: B1 chain
# light: B1 light
# notes: one-arm antibody (one Fab)
# B28: CE115HA000 A56L one-arm antibody (antibody, human IgG1, kappa, L234A L235A, N297A, name in Kabat numbering)
# heavy: B1 heavy with D28T, A59L
# chain: B1 chain
# light: B1 light
# notes: one-arm antibody (one Fab)
# B29: CE115HA000 A99F one-arm antibody (antibody, human IgG1, kappa, L234A L235A, N297A, name in Kabat numbering)
# heavy: B1 heavy with D28T, A105F
# chain: B1 chain
# light: B1 light
# notes: one-arm antibody (one Fab)
# B30: CE115HA000 A56Q one-arm antibody (antibody, human IgG1, kappa, L234A L235A, N297A, name in Kabat numbering)
# heavy: B1 heavy with D28T, A59Q
# chain: B1 chain
# light: B1 light
# notes: one-arm antibody (one Fab)
# B31: CE115HA000 A56N one-arm antibody (antibody, human IgG1, kappa, L234A L235A, N297A, name in Kabat numbering)
# heavy: B1 heavy with D28T, A59N
# chain: B1 chain
# light: B1 light
# notes: one-arm antibody (one Fab)
# Biological target: T1, CD3 epsilon homodimer protein (UniProt P07766 23-126)
# T1 construct: also called CD3 (CD3 epsilon)
# Test: SPR Biacore T200, antibody over immobilised CD3e homodimer;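 note: CD3 epsilon homodimer amine-coupled on a CM4 chip, run at 25 °C in HBS-EP+, Z = bound amount of each single-residue H chain variant over that of the parent antibody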
row,Binder,ratio of amounts bound (Z=Y/X vs CE115HA000)
1,B1,0.56
2,B2,0.65
3,B3,0.1
4,B4,0.22
5,B5,0.1
6,B6,1
7,B7,0.66
8,B8,0.85
9,B9,0.91
10,B10,0.45
11,B11,0.98
12,B12,0.1
13,B13,0.66
14,B14,1.32
15,B15,0.61
16,B16,0.55
17,B17,0.11
18,B18,0.13
19,B19,0.7
20,B20,0.3

# Biological target: T2, CD3 epsilon homodimer protein (UniProt P07766 23-126)
# T2 construct: Immobilized on Sensor chip CM4 by amine coupling; construct not described; also called CD3 (CD3 epsilon)
# Test: SPR Biacore T200, CD3 epsilon homodimer on CM4 chip, antibody as analyte;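 note: Amine-coupled CD3 epsilon homodimer, run at 25 °C in HBS-EP+ buffer, ratio is bound amount of each single-residue H chain variant over that of the parent antibody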
# T2 sequence (P07766 23-126): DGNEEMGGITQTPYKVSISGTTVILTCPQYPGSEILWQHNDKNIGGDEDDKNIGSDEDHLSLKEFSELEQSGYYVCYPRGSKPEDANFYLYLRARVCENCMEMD
row,Binder,ratio of amounts bound (Y/X vs CE115HA000)
1,B21,1.26
2,B22,0.91
3,B23,1.48
4,B24,1.13
5,B25,0.28
6,B26,0.82
7,B27,0.66
8,B28,0.8
9,B29,1.43
10,B30,0.76
11,B31,0.87
